Source: article PMC5501846, “X-Ray snapshots of a pyridoxal enzyme: a catalytic mechanism involving concerted [1,5]-hydrogen sigmatropy in methionine γ-lyase” (Scientific Reports, 2017)

Columns and labels:
[1] = molecular target: L-methionine γ-lyase from Entamoeba histolytica (EhMGL1) (Entamoeba histolytica); assay: crystal structure; hanging-drop vapor diffusion at 277 K, 1.8 M ammonium sulfate, 0.1 M cacodylate pH 6.6, 0.1 M lithium citrate, 100 μM PLP; substrate-free and methionine-soaked crystals (50 mM L-methionine, 30-120 s, 293 K); tetramer of two catalytic dimers in the crystal
EhMGL1 [2] = molecular target: T1, EhMGL1 (Entamoeba histolytica, UniProt Q86D28); assay: X-ray crystallography of methionine-soaked crystals; assay type: binding; settings: covalent Schiff base with PLP in intermediates; Michaelis complex also seen; 50 mM L-methionine soak 30–120 s, 293 K
T1 construct: gene metg; homotetramer
T1 sequence (Q86D28 1-389): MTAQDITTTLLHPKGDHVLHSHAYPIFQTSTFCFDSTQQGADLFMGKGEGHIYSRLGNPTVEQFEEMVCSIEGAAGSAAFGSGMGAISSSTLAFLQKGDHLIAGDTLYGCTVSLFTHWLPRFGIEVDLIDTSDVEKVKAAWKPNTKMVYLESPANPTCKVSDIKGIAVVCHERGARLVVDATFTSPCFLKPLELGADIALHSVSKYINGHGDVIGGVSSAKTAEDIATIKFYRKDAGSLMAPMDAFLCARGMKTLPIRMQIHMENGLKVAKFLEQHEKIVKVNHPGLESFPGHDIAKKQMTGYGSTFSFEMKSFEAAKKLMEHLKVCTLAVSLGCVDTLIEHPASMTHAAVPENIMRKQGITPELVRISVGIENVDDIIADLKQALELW

EhMGL1 [3] = molecular target: T1, EhMGL1; assay: X-ray crystallography, […] Å; assay type: binding; settings: covalent, Schiff base with Lys205; substrate-free enzyme
purified protein [4] = substrate: COCC[C@H](N)C(=O)O; assay: purified protein; settings: 100 mM phosphate pH 7.0, 1 mM DTT, 20 μM PLP, 37 °C
purified protein [5] = substrate: C[Se]CC[C@H](N)C(=O)O; assay: purified protein; settings: 100 mM phosphate pH 7.0, 1 mM DTT, 20 μM PLP, 37 °C

L-methionine γ-lyase from Entamoeba histolytica (EhMGL1) (enzyme)
stoichiometry N [1]: 4

CSCC[C@H](N)C(=O)O [CH3S, L-methionine]
X-ray crystallography of methionine-soaked crystals (EhMGL1 [2]): Crystals of EhMGL1 complexed with reaction intermediates were prepared by soaking crystals

Cc1ncc(COP(=O)(O)O)c(C=O)c1O [pyridoxal 5′-phosphate]
X-ray crystallography, 1.97 Å (EhMGL1 [3]): the active site binds a PLP cofactor that forms a Schiff base

B1: EhMGL1 (Entamoeba histolytica) (protein)
chain: MTAQDITTTLLHPKGDHVLHSHAYPIFQTSTFCFDSTQQGADLFMGKGEGHIYSRLGNPTVEQFEEMVCSIEGAAGSAAFGSGMGAISSSTLAFLQKGDHLIAGDTLYGCTVSLFTHWLPRFGIEVDLIDTSDVEKVKAAWKPNTKMVYLESPANPTCKVSDIKGIAVVCHERGARLVVDATFTSPCFLKPLELGADIALHSVSKYINGHGDVIGGVSSAKTAEDIATIKFYRKDAGSLMAPMDAFLCARGMKTLPIRMQIHMENGLKVAKFLEQHEKIVKVNHPGLESFPGHDIAKKQMTGYGSTFSFEMKSFEAAKKLMEHLKVCTLAVSLGCVDTLIEHPASMTHAAVPENIMRKQGITPELVRISVGIENVDDIIADLKQALELW
Km (purified protein [4]): 2500 ± 240 µM
kcat (purified protein [4]): 1.04 ± 0.35 s⁻¹
kcat/Km (purified protein [4]): 420 ± 150 M⁻¹ s⁻¹
Km (purified protein [5]): 410 ± 70 µM
